Source: the nanobody polyreactivity screen of Harvey et al. (2022)

Assay: yeast display, Sf9 membrane polyspecificity reagent, FACS + sequencing; frameworks hold sequencing errors
In short: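 Galactose induction of a Saccharomyces cerevisiae BJ5465 synthetic nanobody display library ran 36–48 hours. The cells were then stained for 1 hour at 4 °C with 10% biotinylated, detergent-solubilized Sf9 membrane reagent, pulled down on streptavidin microbeads and FACS-sorted into low and high (top ~1%) gates on expression and reagent-binding fluorescence. Labels for polyreactivity follow the gate of origin.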

Sequence	polyreactivity (PSR sort gate)
QVHLVETGGGLVQAGGSLRISCAASGFTFSRYAMVWYRQAPGKERELVAAITSRGGSTYYADSVKGRFTISRDNAKNTVYLQMNSLKPEDTAFYYCAASGRNRKDGLYEYYYWGQGTQVTVSS	high polyreactivity
QVQLVESGGGLVQAGGSLRLSCDASALTIITNAMGWYRQAPGKERELVAAISGTGGSTYYADSVKGRFTISRDNAKYTVYLQMNSLKPEDTAVYYCAAAPYTFWVGDSWGQGTQVTVSS	high polyreactivity
QVQLVESGGGLVQAGGSLRLSCSAYGSTLGYYAMGWYRQAPGKERELVAAIRYSDGNTYYADSVKGRFTISRDNAKNTVYLQMNSLKPEDTAVYYCAADGGYYGRDYWGQGTQVTVSS	high polyreactivity
QVQLVESGGGLVQAGGSLRLSCAATGRTFYVNAMGWYRQAPGLEREFVARITSGGSTYYADSVKGRFTISPDKAKNTVYVQKNSLKPEDTAVYYCAADYVSLSVFSYCAWYDYWGQGTQVTVSS	low polyreactivity
QVQLVESGGGLVQAGGSLRLSCAASGITIYVYAMGWYRQAPGTERELVAAITRSGGITSYADSVKGRFTISRDNAKNTVYLQMNSLKPEDTAVYYVAAESTNLHYHIQGVGYWGQGTQVTVSS	low polyreactivity
QVQLVESGGGLVQAGGSLRLSCAASGGPFKRNAMGWSRQAPGKERELVAAISTSGATTYYADSVKGRFTISRDTAKNTVYLQMNSLKPEDTAVYYCAARIRGYVYKGMNYWGQGTQVTVSS	high polyreactivity
QVQLVESGGGLVQAGGSLRLSCAASGRIFAAYAMGWYRQAPGKERELVAGISRGGRTYYADSVKGRFTISRDNAKNTVYLQMNSLKPEDTAVYYCAKRATGQYSITTYGYDYWGQGTQVTVSS	low polyreactivity
HVQLGESGGGLVQAGGSLRLSCAASGFIFTAYVMGWYRQAPGKERELVAAISRSGGSTYYADSVKGRFTISRDNAKHTVYLQMNSLKPEDTAVYYCAKLRRDARYDYWGQGTQVTVSS	high polyreactivity
QVQIVESGGGLVQAGGSLRLSCAASGLTFYQNAMGWYRQAPGKERELVAAITRSGGSTYYADSVKGRFTISRDNAKNTVYLQMNSLKPEDTAVYYCAARGGLSRRYEYWGQGTQVTVSS	high polyreactivity
QVQLVESGGGLFHAGGSLRLSCSASGLTFDINAMGWYRQEPGKERELVAAISRSGGRTYYADSVKGRFTISRDNAKNTVFLQMNSLKPEDTAVYYCADRFIYGYDYWGQGTQVTVSS	high polyreactivity
QVQLVESGGGFVQAGGSLRLSCAASGSTFHDYVMGWYRQAPGKERELVATIRRGASTYYADSVKGRFTISRDNEKNTVYLQMNSLIPEDTAVYYCAVPATGGYFSSEYDYWGQGTQVTVSS	low polyreactivity
QVQLVESGGGLVQAGGSLRLSCAASGFTIPTYTMGWYRQAPGKEREFVARITKRGGSTYYADSVKGRFTISRDNAKNTVYLQMNGLKPEDTAVYYCNARRYGKVVRSRYNYWGQGTQVTVSS	high polyreactivity
QVQLLESGGGLVQAGGSLRLSCAASGSIFRGYAMGWYRQAPGKERELVAGIRGSDGSTYYADSVKGRFTISRDNAKNTVYLQMNSLKPEDTAVYYCAADRRYLDRDKHRYGYWGQGTQVTVSS	low polyreactivity
QVQLVESGGGLVQAGGSLRLSCAASGRTFGTYAMGWYIQAPGKERELVAAIRSNAGSTYYADSVKGRFTISRDNAKNTVYLQMNSLKPEDNAVYYCAKSYRCSRRYNYWGQGTQVTVSS	high polyreactivity
QVQLVESGGGLVQAGGSLRLSCAASGLTFEWYAMGWYRQAPGKERELVAAISWNGGSTYYADSVKGRFTISRDNAKNTVYLQMNSLKPEDTAVYYCATSSPRRYYWGQGTQVTVSS	high polyreactivity
QVQLVESCGGLVQPGGSLRLSCAASGSTFVNYAMGWYRQAPGKERELVAAITRGVRTYYADSVKGRFTISRDNAKNTVYLQMNSLKAEDTAVYYCNRAIGPYSYPDNYWGQGTQVTVSS	high polyreactivity
QVQLVESGGGLVQAGGSLRLSCAASGITFSYYAMGWYRQAPGKERELVAAINSSGGSTYYADSVKGRFTISRDNAKNTVYLQMNSLKPEDTAVYYCAADSFLYPYAEFGYWGQGTQVTVSS	low polyreactivity
QVQLVESGGGLVHAGGSLRLSCAASGRIFGTNAMGWYIQAPGKERELVATITRGGGNTYYADSVKVRFTISRDHAMNTVDLQMNSLKPEDTAVYYCNVDYGVHVPPRDYWGQGTQVTVSS	low polyreactivity
QVQLVESGGGLVQAGGSLRLSCAASGITFYDYDMGWYIQAPGKERELVADISYSGGGTYYADSVKGRFTISRDNAKNTVYLQMNSLKPEDTAVYYCAADSQRYYGDYYWGQGTQVTVSS	high polyreactivity
QVQLVESGGGLVQAGGSLRLTCAASGRTFQYYAMGWYRQAPGKERELVAAISQDGGSTYYADSVKGRFTISRDNSKNSVYLQMNSLKPEDTAVYYCAARVDEYAYYALDDYWGQGTQVTVSS	low polyreactivity
QVQLVESCGGLVQAGGSLRLSCDASGITFNYNAMGWYRQAPGKERELVARITWSGTRTYYADSVKGRFTISRDNAKNTVYLQMNSLKPEDTAVYYCNAGPYARYYWGQGTQVTVSS	high polyreactivity

Sequence	polyreactivity (PSR sort gate)
QVQLVESGGGLVQAGGSLRLSCAASGRTIVYNAMGWYRQAPGKESELVAAITSGGRTYYADSVKGRFTISRDNAKNTVYLQMNSVKPEDTAVYYCATDYYGPDYPLDYWGQGTQVTVSS	low polyreactivity
QVQLVESGGGLVQAGGSLRLSCAPSGFTFRIYAMGWYRQAPGKERELVAAISWAGGSTFYADSVKGRFTISRDNAKNTVYLQLNSLKPEDTAVYYCAADTAFNYDYWGQGTQVTVSS	low polyreactivity
QVQLVESGGGLVQAGGSLRLSCAASGRTFSGNALGWSTHAPGKERELVAAITSSGGSTYYADSVKGRFTISRENAKNTVYLQMNSLKPEDTAVYYCNTDPQGRTVVYGGDDYWGQGTQVTVSS	low polyreactivity
QVQLVESWGGLVQAGLSLRLSCAASGIMGWYRQAPGKERELVDAITYTGDSTFYADSVKGRFTISRDNPKNTVYVQINSLKAEDTAVYDCATKYGTSNWYNTYYYWGQGTQVTVSS	low polyreactivity
QVHLQESGGGLVQAGGSLRLSCAASGNIVDADIMGWYRQAPGKERELVASITDGGSTNYADSVKGRFTISRDNAKNTVYLQMNSLKPEDTAVYYCAAIGYPDIPTYFDYDSEYFYWGQGTQVTVSS	low polyreactivity
QDQLVESGGGLVQAGGSLRLSCAASGSIFEINAMGWYRQSPGKERELVAAITGSGGSTHYADSVKGRFTISRDNAKNTVYLQMNSLKPEDTAVYYCAAVPRYQYGYWGQGTQVTVSS	low polyreactivity
QVQLVESGGGLVQAGGSLRLSCASSGFTFHSYAMGWYRQAPGKERELVAAISTGGTRTYYADSVKGRFTISRDNAKNTVYLQMNSLKTEDTAVYYCAADLYRGVRIYSKYDSWGQGTQVTVSS	high polyreactivity
QVQLVESGGGLVQAGGSLRLSSAASGRTFFPNAMGWYRQAPGKERELVAAISSGGGGTYYADSVKGRFTISRDKAKNTVYLQMNRLKPEDTAVYYCAGRNSKVEEEGNYWGQGTQVTVSS	low polyreactivity
QVQLVESGGGLVQAGGSLRLSCAASGFTFRLYAMGWYRQAPGKERELVAAISSRGTTTYYADSVKGRFTNSRDNAKKTGYLQMNSLKPEDTAVYNCNKEYTSYGYDLEYDYWGQGTQVTVSS	low polyreactivity
QVQLVESGGGLVQAGGSLRLSCAASGRTFYKNTMGWYRQAPGKERELVATISQRGGSTYYADSVKGRFTISRDNAKNTVYLQMNSLKPEDTAVYYCNARRTSYTSQGYDYWGQGTQVTVSS	high polyreactivity
QVQLVESGGGLVQAGGSLRLSSAASGRTFTYYAMGWYRQAPGTERELVAAISSGGRTDYADSVKGRFTISRDNAKNTVYLQMNSLKPEDTAVYYCNARPKVYYREYDYWGQGNQVTVSS	high polyreactivity
QVQLVESGGGLVQAGGSLRLSCAASGFIFRAYTKGWYRQAPGKERELVAAITSSGGRTNYADSVKGRFTISRDNAKNTVYLQMNSLKPEDTAVYYCATVYAKWKQFDYWGQGTQVTVSS	high polyreactivity
QVQLVESGGGLVQAGGSIRLSCAASGSTFRVYAMGWYRQAPGKERELVAAISSSGGITYYADSVKGRFTISRDNAKNTVYLQMNSLKPEDTAVYYCAKGTVIHVLYDYWGQGTQVTVSS	low polyreactivity
QVQLVESGGGLVQAGGSLRLSCAASGRIFDFNAMGWYRQAPGKEREFVAAIRTSGGDSTYYADSVKGRFTISRDNEKNTVYLQMNSLKPEDTAVYYCAKTVWWYYRYPFDYWGQGTQVTVSS	low polyreactivity
QVQLVESGGGVVQAGGSIRLSGAASGRIFGEYAMGWYRPAPAKERELGAAISGGGSTYYADSVKGRFTISRDNAKNTVYLQMNSLKPEDTAVYYCAVYSVYHEYDYGGQGTQVTVSS	low polyreactivity
QVQLVESVGGLVQAGGSLRLSCASSGSIFEGSAMGRYRQAPGKEMELVASISSGGSTNYADSVKGRFTISRDNAKNTVYLQMNSLKPEDTAVYYCAAEWVWYKWEFEYWGQGTKVTVSS	high polyreactivity
QVQLVESGGGLVQAGGSLRLSCAASGFIGSNTMGWYRQAPGKERELVAAISWSGGSTYYADSVKGRFTISRDNAKNTVYLQMNSLKPEDTAVYYSAARRNSRARRTFGYWGQGTQVTVSS	high polyreactivity
QVQLVESGGGLVQAGGSLRLSCAASGSTFRGYAMGWYRQEPGKERELVAAITSGGSTNYADSVKGRFTISRDNAKNTVYLQMISLKPEDTAVYYCNADYTYLYDPNDYWGQGTQVTVSS	low polyreactivity
QGQRVESGGGLVQAGGSLLLSCAASGLTFAKYAMGWDRQAPGKERELVSTITWSGATTYYADSVKGRFTISRDYAKNTVYLQMNSLKPEDTAVYYCIADLPVYVDYIIGGYGYWGQGTQVTVSS	low polyreactivity
QVQLVESRGGLVQAGGSLRLSCAASGRIFSSYAMGWYRQAPGKERELVAAISSRGGSTYYADSVKGRFTISRDNAKNTVYLQMNSLKPDDTAVYYCARVKYSGVVYKYDYWGQGTQVTVSS	high polyreactivity
